Columns and labels:
Aβ(1-42) = target: T1, Aβ(1-42) (Homo sapiens, UniProt P05067); experiment: Degradation activity of MMP-9 for the amyloid-gold nanoparticle, Aβ(1-42); assay type: biochemical; conditions: ASGN made with Aβ(1-42)
T1 construct: can degrade Aβ(1-42)
Text: (§1) For investigation of the reactivity of the Amyloid Shelled-Gold Nanoparticle (ASGN), the reactivity of the amyloid-gold nanoparticle with amyloid-degrading proteases (protease XIV and matrix metallopeptidase 9 (MMP-9)) was investigated. As a result, it was confirmed that the composite of the present disclosure can be used not only for drug screening but also for investigation of the activity of an amyloid-degrading enzyme.
(§2) Therefore, MMP-9 degrades and removes Aβ(1-42) in the Golgi apparatus and the cytoplasm in the neurons of the brain.

Aβ(1-40) = Aβ(1-40) (Homo sapiens, UniProt P05067); experiment: Degradation activity of MMP-9 for the amyloid-gold nanoparticle, Aβ(1-40); assay type: biochemical; conditions: ASGN made with Aβ(1-40)
Text: as §1, §2

T1 sequence (P05067 672-713 limits assumed): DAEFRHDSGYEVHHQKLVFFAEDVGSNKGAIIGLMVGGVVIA
Aβ(1-40), sequence (P05067 672-711 limits assumed): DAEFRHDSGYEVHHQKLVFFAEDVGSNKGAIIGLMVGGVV

Substance: matrix metallopeptidase 9 [MMP-9]
- degradation of Aβ(1-42) on the amyloid-gold nanoparticle (Aβ(1-42)): specifically degrades Aβ(1-42) only
- degradation of Aβ(1-40) on the amyloid-gold nanoparticle (Aβ(1-40)): cannot degrade

From patent publication US12228567B2, “Colorimetric sensor kit for screening therapeutic agent for neurodegenerative disease, including amyloid shelled-gold nanoparticle, and method for screening therapeutic agent for neurodegenerative disease” (Korea University Research and Business Foundation, priority 2019, dated 2025)
